# Results: patent US10793631B2, “Human PAC1 antibodies” (AMGEN INC., priority 2013, dated 2020)
# Experiments:
# Format in all cases: cell-based
# PAC1 = biological target: T1, PAC1 (Homo sapiens, UniProt P41586); assay: Activity and selectivity of PAC1 agonists on PAC1
# T1 sequence (P41586 21-468): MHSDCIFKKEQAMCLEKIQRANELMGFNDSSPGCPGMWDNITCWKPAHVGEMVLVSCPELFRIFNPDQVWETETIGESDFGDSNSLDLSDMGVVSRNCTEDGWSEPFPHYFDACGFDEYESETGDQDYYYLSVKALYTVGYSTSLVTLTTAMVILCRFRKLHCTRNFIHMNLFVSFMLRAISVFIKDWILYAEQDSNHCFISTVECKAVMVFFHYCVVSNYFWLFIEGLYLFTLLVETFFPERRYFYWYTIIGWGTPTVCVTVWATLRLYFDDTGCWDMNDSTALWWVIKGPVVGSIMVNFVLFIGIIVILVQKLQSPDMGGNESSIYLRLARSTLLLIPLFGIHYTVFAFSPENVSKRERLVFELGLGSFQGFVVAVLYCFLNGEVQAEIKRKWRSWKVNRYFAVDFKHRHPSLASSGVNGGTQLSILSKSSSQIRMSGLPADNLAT
# VPAC2 = biological target: T2, VPAC2 (Homo sapiens, UniProt P41587); assay: Activity and selectivity of PAC1 agonists on VPAC2; settings: receptor agonist on VPAC2
# T2 sequence (P41587 24-438): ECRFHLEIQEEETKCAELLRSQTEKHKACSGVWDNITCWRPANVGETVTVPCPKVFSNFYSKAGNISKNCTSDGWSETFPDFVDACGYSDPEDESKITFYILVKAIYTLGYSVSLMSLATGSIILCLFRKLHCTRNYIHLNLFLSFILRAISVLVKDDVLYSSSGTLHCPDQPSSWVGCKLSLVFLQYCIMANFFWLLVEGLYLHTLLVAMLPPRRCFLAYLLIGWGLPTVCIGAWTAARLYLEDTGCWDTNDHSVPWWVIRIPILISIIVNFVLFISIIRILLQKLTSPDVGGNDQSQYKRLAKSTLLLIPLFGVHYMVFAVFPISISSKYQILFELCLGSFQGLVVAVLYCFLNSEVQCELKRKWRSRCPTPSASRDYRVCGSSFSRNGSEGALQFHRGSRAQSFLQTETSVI
# VPAC1 = biological target: T3, VPAC1 (Homo sapiens, UniProt P32241); assay: Activity and selectivity of PAC1 agonists on VPAC1; settings: receptor agonist on VPAC1
# T3 sequence (P32241 31-457): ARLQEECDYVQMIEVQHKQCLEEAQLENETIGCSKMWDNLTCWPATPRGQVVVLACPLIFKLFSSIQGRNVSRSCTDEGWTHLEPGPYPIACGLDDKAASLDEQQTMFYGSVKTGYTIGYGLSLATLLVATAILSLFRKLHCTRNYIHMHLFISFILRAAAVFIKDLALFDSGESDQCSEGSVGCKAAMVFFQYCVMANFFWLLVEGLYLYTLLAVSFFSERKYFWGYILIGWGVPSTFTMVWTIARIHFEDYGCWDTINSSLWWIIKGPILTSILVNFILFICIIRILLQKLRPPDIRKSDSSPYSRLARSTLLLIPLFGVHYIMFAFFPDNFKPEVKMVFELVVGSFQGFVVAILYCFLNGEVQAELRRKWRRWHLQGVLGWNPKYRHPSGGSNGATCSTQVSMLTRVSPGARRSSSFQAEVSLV
substance,measurement,setting,value
Maxadilan: 65 amino acid peptide originally isolated from the sand-fly; PAC1-selective agonist,agonist activity and selectivity,PAC1; PAC1 versus VPAC1 and VPAC2,highly-selective for PAC1 versus VPAC1 and VPAC2
same,EC50,PAC1; receptor agonist on PAC1,0.06 nM
same,EC50,VPAC2,> 1000 nM
same,EC50,VPAC1,> 1000 nM
